Target: T1, HA-ubiquitin (expressed from pMT123-HA-ubiquitin) (UniProt P0CG48 1-76)
T1 construct: Co-expressed in HEK 293T cells and detected with anti-HA after anti-myc immunoprecipitation; It attaches covalently (isopeptide bond, polyubiquitin chains); P0CG48 is the polyubiquitin-C precursor; a single ubiquitin unit is 76 residues; not shown: HA tag of the pMT123-HA-ubiquitin plasmid
Assay: covalent ubiquitination in HEK 293T cells: anti-myc IP, anti-HA Western blot

B1: myc-EGF WT (expressed from pcDNA3-myc-EGF WT) (ligand)
chain: NSDSECPLSHDGYCLHDGVCMYIEALDKYACNCVVGYIGERCQYRDLKWWELR
modifications: not fully specified
notes: Expressed inside HEK 293T cells; also called human EGF; not shown: myc tag of the pcDNA3-myc vector
binding result: binds

Source: patent US20200270301A1 (UBIPROTEIN, published 2020)
